Laboratory results reported in PMC3517414, “Complex Interplay between the Lipin 1 and the Hepatocyte Nuclear Factor 4 α (HNF4α) Pathways to Regulate Liver Lipid Metabolism” (PLoS ONE, 2012).

Molecular target: T1, hepatocyte nuclear factor 4α (HNF4α) (human (endogenous in HepG2), UniProt P41235 1-474)
T1 sequence (looked up): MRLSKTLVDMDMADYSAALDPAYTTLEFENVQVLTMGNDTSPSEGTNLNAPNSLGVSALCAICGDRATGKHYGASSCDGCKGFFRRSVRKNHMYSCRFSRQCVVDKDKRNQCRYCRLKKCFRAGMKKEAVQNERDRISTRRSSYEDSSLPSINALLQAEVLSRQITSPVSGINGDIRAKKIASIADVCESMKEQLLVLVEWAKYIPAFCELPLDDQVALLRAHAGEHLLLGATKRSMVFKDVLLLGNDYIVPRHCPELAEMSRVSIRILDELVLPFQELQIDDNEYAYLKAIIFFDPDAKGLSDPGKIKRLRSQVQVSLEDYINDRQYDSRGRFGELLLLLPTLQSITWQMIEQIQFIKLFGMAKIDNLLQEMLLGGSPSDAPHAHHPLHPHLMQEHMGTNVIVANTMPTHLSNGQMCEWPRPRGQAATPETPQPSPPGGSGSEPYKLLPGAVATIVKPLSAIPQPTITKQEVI
Assay: cell-based or functional assay

activity of a Gal4-HNF4α fusion on the UAS-TKLuc luciferase reporter in HepG2 cells with lipin 1 overexpression: > 3 fold
B1: lipin 1β (924 amino acid form of mouse lipin 1), HA-tagged (natural protein, UniProt Q91ZP3 1-924, looked up)
chain: MNYVGQLAGQVFVTVKELYKGLNPATLSGCIDIIVIRQPNGSLQCSPFHVRFGKMGVLRSREKVVDIEINGESVDLHMKLGDNGEAFFVQETDNDQEIIPMYLATSPILSEGAARMESQLKRNSVDRIRCLDPTTAAQGLPPSDTPSTGSLGKKRRKRRRKAQLDNLKRDDNVNSSEDEDMFPIEMSSDEDTAPMDGSRTLPNDVPPFQDDIPKENFPSISTHPQSASYPSSDREWSPSPSSLVDCQRTPPHLAEGVLSSSCPLQSCHFHASESPSGSRPSTPKSDSELVSKSADRLTPKNNLEMLWLWGELPQAAKSSSPHKMKESSPLGSRKTPDKMNFQAIHSESSDTFSDQSPTMARGLLIHQSKAQTEMQFVNEEDLESLGAAAPPSPVAEELKAPYPNTAQSSSKTDSPSRKKDKRSRHLGADGVYLDDLTDMDPEVAALYFPKNGDPGGLPKQASDNGARSANQSPQSVGGSGIDSGVESTSDSLRDLPSIAISLCGGLSDHREITKDAFLEQAVSYQQFADNPAIIDDPNLVVKVGNKYYNWTTAAPLLLAMQAFQKPLPKATVESIMRDKMPKKGGRWWFSWRGRNATIKEESKPEQCLTGKGHNTGEQPAQLGLATRIKHESSSSDEEHAAAKPSGSSHLSLLSNVSYKKTLRLTSEQLKSLKLKNGPNDVVFSVTTQYQGTCRCEGTIYLWNWDDKVIISDIDGTITRSDTLGHILPTLGKDWTHQGIAKLYHKVSQNGYKFLYCSARAIGMADMTRGYLHWVNERGTVLPQGPLLLSPSSLFSALHREVIEKKPEKFKVQCLTDIKNLFFPNTEPFYAAFGNRPADVYSYKQVGVSLNRIFTVNPKGELVQEHAKTNISSYVRLCEVVDHVFPLLKRSHSCDFPCSDTFSNFTFWREPLPPFENQDMHSASA
